This note sets out measurements from patent US20050038229A1 (published 2005).

In the experiment the target is T1, tumor necrosis factor-α (TNF-α) (human, UniProt P01375 77-233, biotinylated with NHS-LC-LC-Biotin in the Kd and fluorescence assays; coupled to Epoxy-Activated Sepharose 6B in the column assays).
T1 construct: Bought from Pepro Tech; also called biotin-TNF-α; biotinylated TNF-α
As to the kind of experiment: 35S free protein + biotin-TNF-α, capture membrane, equilibrium fit. The procedure:
Subsequently, each sample was loaded on a pre-soaked, SAM2R Biotin Capture Membrane (Promega, Madison, Wis.) using a 96 well, Easy-Titer™ ELIFA system (Pierce). Under vacuum, each spot was washed with 200 μL of HBS pH 7.4, 1% BSA, 0.05% Triton; next the entire membrane was rinsed in the buffer and air-dried. The membrane was exposed with a Storage Phosphor Screen (Molecular Dynamics, Sunnyvale, Calif.) overnight, and the intensities of the resulting individual spots were quantified using a STORM 860 phosphoimager with the ImageQuaNT densitometry program (Molecular Dynamics). The Kd of the binding was determined by fitting the equilibrium equation to the resulting binding curve (KaleidaGraph, Synergy Software); the error of the experiment was estimated from 2-4 independent experiments.

T1 sequence (P01375 77-233 limits assumed): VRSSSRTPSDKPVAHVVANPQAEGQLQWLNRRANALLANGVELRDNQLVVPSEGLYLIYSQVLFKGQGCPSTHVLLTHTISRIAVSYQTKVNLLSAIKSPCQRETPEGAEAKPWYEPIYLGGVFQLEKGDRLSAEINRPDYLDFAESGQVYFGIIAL

B1: T14.22 (designed binder)
chain: VSDVPRDLEVVAATPSSRLISWRPGRTYSRYYRITYGETGGNSPVQEFTVPPWANTATISGLKPGVDYTIAVYAVTFPTGYPLTEMPISINYRT
Consider B1, for which the Kd (commonly the constant that tells how readily two partners part at equilibrium) was 400 pM.

B2: M12.09 (designed binder)
chain: VSDVPRDLEVVAATPTSRLISWRPGRAYSRYFRITYGETGGNSPVQEFTVPPWANTATISGLKPGVDYTIAVYAVTFPPRYPLTEMPISINYRA
With B2, the dissociation constant Kd amounted to 400 pM.

B3: M12.14 (designed binder)
chain: VSDVPRDLKVVAATPTSRLISWTHDNVPARYYRITYGETGGNSPVQELTVPPWASIATISGLKPGVDYTITVYAVTLYTGNHRPEHPISINYRT
On to B3, for which the Kd was found to be 1700 pM.

B4: T14.20 (designed binder)
chain: VSDVPRDLEVVAATPTSRLISWRNIYPIARYYRITYGETGGNSPVQEFTVPPWASIATISGLKPGADYTITVYAVTDKSDTYKYDDPISINYRT
On to B4, for which the Kd came out at 110 pM.

B5: M12.16 (designed binder)
chain: VSDVPRDLEVVAATPTSRLISWRPGRTYSRYYRITYGEAGGNSPVQEFTVPPWASIATISGLKPGVDYTITVYAVTDKSGTYRYDDPISINYRT
Take B5: the Kd came out at 300 pM.

B6: T14.21 (designed binder)
chain: VSDVPRDLEVVAATPTSRLISWRPGRTYSRYYRITYGETGGNSPVQEFTVPPWANTATISGLKPGVDYTITAYAVTYTHSTPMQDEPISINYRT
In the case of B6, the Kd amounted to 7000 pM.

B7: M12.08 (designed binder)
chain: VSDVPRDLEVVAATPTSLLNVPIIRYYRITYGETGGNSPVQEFTVPAPKAIATTSGLKPGVDYTITVYGVTSHRNHFHVETPISINYQA
notes: BC loop cell holds only II
B7: the Kd came to 600 pM.

B8: T14.02 (designed binder)
chain: VSDVPRDLEVVVATPTSQLISWMTPHNHVRYYGITYGETGGNSPVQESTVPTGNATATISGLKPGVDYTITVYAVTPHHGHFDLEPPISINYRT
For B8, the Kd was 500 pM.

B9: T10.15 (designed binder)
chain: VSDVPRDLEVVAATPTSLLISWHTERSFPRYYRITYGETGGNSPVQEFTVPPWGSIATISGLKPGVDYTITVYAVTEHYRDTGTGHPIPINYRT
Regarding B9, the Kd stood at 4000 pM.

B10: M12.12 (designed binder)
chain: VSDVPSDLEVVAATPTSLLISWEQSPTYGRYYRITYGETGGNSPVQEFTVPGSKSTATISGRKPGADYTITVYAVTIEKDRIPLFGPISISYRT
As to B10, the Kd was 200 pM.

B11: M12.22 (designed binder)
chain: VSDVPRDLRVVAATPTSRLISWRPASNPARYYRITYGETGGNSPVQEFTVPPWASVATIGGLKPGVDYTVTVYAVTAQTGHRLHDKPISINYRT
For B11, the Kd came to 700 pM.

B12: M12.04 (designed binder)
chain: VSDVPGDLEVVAATPTSLLIGWSMTPNWPRYYRIAYGETGGDSPVQEFTVPPWASIAIIGGLKPGVDYTITVYAVTHRDTPISINYRT
notes: FG loop cell holds only HRDT
For B12, the Kd turned out to be 20 pM.

B13: M12.19 (designed binder)
chain: VSDVPRDLEVVAATPTGLLISWRNNQYTPRHYGITYGETGGKSPVQEFTVPELNPTATISRLKPGVDYTITVYAVTQNGTPRVIYGPISINYRT
For the molecule B13, the Kd worked out at 600 pM.

B14: M12.24 (designed binder)
chain: VSDVPRDLEVVAATPTSRLISWNRSGLQSGYYRITYGETGGNSPVQEFTVPPWASIATISGLKPGVDYTITVYAVTPNVGRLDTRYPISIDCRT
Take B14: the Kd stood at 1300 pM.
